From patent publication US20030092609A1
[ ]: non-standard residue; d: D form. Hyp = O=C(O)[C@@H]1C[C@@H](O)CN1

How the values were obtained:
[1] = target: AAP receptors in CHO cells; experiment: in situ displacement of [125I]AAP10 on intact CHO cells
[2] = target: [125I]AAP10 binding site in murine heart tissue preparations; experiment: displacement of 0.8 nM [125I]AAP10 from murine heart filtrate
[3] = target: [125I]AAP10 binding site in murine heart tissue preparations; experiment: displacement of 0.8 nM [125I]AAP10 from murine heart membranes
[4] = target: AAP receptors in CHO cells; experiment: cell-based or functional assay

Row | Molecule | IC50 [1] [nM] | IC50 [2] [nM] | IC50 [3] [nM] | Inhibition of forskoline stimulated cAMP formation in CHO cells, EC50 [4] [nM]
1 | Ac-D-Tyr(3,5-di-I)-D-Pro-D-Hyp-Gly-D-Ala-Gly-NH2 (Compound 24) (peptide) | 65 | – | – | –
2 | {ASAL(3-I)}-P[Hyp]GAG-NH2 [ASAL(mono-iodo)-Pro-Hyp-Gly-Ala-Gly-NH2 (Compound 32)] | 0.5 | – | – | –

Further lines, results first:

Row | IC50 [1] [nM] | IC50 [2] [nM] | IC50 [3] [nM] | Inhibition of forskoline stimulated cAMP formation in CHO cells, EC50 [4] [nM] | Molecule
3 | 0.5 | 3.6 | 1.2 | 6.2 | Ac-D-Tyr-D-Pro-D-4Hyp-Gly-D-Ala-Gly-NH2 (Compound 2) (peptide)
4 | 0.8 | 1.2 | – | 53 | H-GP[Hyp]GAG-OH (SMILES C[C@H](NC(=O)CNC(=O)[C@@H]1C[C@@H](O)CN1C(=O)[C@@H]1CCCN1C(=O)CN)C(=O)NCC(=O)O) [H-Gly-Pro-Hyp-Gly-Ala-Gly-OH (AAP, antiarrhythmic peptide)]
5 | 130 | 1.2 | – | 11 | H-GAG[Hyp]PY-NH2 [H-Gly-Ala-Gly-Hyp-Pro-Tyr-NH2 (AAP10)]
